Consider 1 substance from publication PMC6647844.

pKd: −log10 of the molar value.

This experiment concerns the target tetra-methyl rhodamine-labeled Aβ42 (TMR-Aβ) (UniProt P05067). Description: other fluorescence titration.

tetra-methyl rhodamine-labeled Aβ42 (TMR-Aβ), sequence (P05067 672-713): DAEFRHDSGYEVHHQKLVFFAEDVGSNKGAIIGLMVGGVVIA

A word on the pKd: it is the negative decadic logarithm of the Kd, by convention in mol/L. Read a low pKd as a large Kd. The substance “granulin-3, fully reduced (rGRN-3) (from UniProt P28799 206-261) (natural protein)” gave a pKd of 5.59.
